{"source": "IntAct's records for PubMed 11731480", "parents": {"B1": {"name": "Histone acetyltransferase SAS2 (Saccharomyces cerevisiae), P40963 (parent)", "chain": "MARSLSQSLTATTQKLKGKKNGGKGKNKPSAKIKKTQKEMLYGILNERNIRQIQFGLNKKFSTWYGSAVYFDPETKRLGCSETKGQLSSVSNSQYWLDTLFVCEYCFKYTDDQTRFVGHVASCPFQYRVPGKIKYKSPEYTIRRVKGSKYQLFCQCLCLFTKLYLDNKSMYFKVDHYEFYIVYETGSTKPMGFFSKDLVSYQQNNLACILIFPPYQRRGLGLLLIEFSYKLSQLEGVISGPEVPLSPFGLIGYLKYWSQILCWHLIEGDLAHYDKVTLEDLSIVTGMRVNDVILTLKHLNCIGENNQIYLQSLNSWLKLHGTKRNWFKLKDEYLLIDD", "partner": "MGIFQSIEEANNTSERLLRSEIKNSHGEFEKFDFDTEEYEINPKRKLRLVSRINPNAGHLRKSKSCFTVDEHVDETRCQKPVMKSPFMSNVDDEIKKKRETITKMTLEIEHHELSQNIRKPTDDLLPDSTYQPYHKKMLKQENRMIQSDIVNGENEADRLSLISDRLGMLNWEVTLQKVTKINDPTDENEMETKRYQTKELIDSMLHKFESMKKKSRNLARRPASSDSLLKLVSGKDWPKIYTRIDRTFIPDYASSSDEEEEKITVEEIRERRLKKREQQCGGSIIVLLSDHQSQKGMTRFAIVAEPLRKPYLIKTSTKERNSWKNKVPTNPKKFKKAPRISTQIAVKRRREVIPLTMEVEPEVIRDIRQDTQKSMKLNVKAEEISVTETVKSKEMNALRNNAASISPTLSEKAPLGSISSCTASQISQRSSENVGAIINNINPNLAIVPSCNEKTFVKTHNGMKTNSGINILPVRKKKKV"}, "B2": {"name": "Histone acetyltransferase SAS2 (Saccharomyces cerevisiae), P40963 (parent)", "chain": "B1 chain"}}, "data": [{"variants_of": "B1", "details": "with sas4_yeast SAS4, Q04003", "values": [{"variant": "C106L", "effect of a mutation on the interaction": "decreasing interaction"}, {"variant": "P213A;P214V", "effect of a mutation on the interaction": "decreasing interaction"}]}, {"variants_of": "B2", "details": "with caf1a_yeast RLF2, Q12495", "values": [{"variant": "P213A;P214V", "effect of a mutation on the interaction": "decreasing interaction"}, {"variant": "C106L", "effect of a mutation on the interaction": "decreasing interaction"}]}]}
